Laboratory results: paper PMC9533685, “NICD3 regulates the expression of MUC5AC and MUC2 by recruiting SMARCA4 and is involved in the differentiation of mucinous colorectal adenocarcinoma” (Molecular Oncology, 2022)

B1: GST-tagged SMARCA4 BRK domain (aa 612-656) (domain or fragment, human, UniProt P51532 612-656, looked up)
chain: MSDLPVKVIHVESGKILTGTDAPKAGQLEAWLEMNPGYEVAPRSD
notes: also called SMART BRK domain; source: E. coli, purified (GeneCreate Biological Engineering)
B2: GST-tagged SMARCA4 BROMO domain (aa 1455-1566) (domain or fragment, human, UniProt P51532 1455-1566, looked up)
chain: PPNLTKKMKKIVDAVIKYKDSSSGRQLSEVFIQLPSRKELPEYYELIRKPVDFKKIKERIRNHKYRSLNDLEKDVMLLCQNAQTFNLEGSLIYEDSIVLQSVFTSVRQKIEK
notes: also called SMART BROMO domain; source: E. coli, purified (GeneCreate Biological Engineering)

Target: T1, His-tagged human NOTCH3 intracellular domain (aa 1665-2321) (human, UniProt Q9UM47 1665-2321)
T1 construct: human NOTCH3 intracellular domain, aa 1665-2321; also called His-NICD3; source: E. coli, purified (GeneCreate Biological Engineering)
T1 sequence (looked up): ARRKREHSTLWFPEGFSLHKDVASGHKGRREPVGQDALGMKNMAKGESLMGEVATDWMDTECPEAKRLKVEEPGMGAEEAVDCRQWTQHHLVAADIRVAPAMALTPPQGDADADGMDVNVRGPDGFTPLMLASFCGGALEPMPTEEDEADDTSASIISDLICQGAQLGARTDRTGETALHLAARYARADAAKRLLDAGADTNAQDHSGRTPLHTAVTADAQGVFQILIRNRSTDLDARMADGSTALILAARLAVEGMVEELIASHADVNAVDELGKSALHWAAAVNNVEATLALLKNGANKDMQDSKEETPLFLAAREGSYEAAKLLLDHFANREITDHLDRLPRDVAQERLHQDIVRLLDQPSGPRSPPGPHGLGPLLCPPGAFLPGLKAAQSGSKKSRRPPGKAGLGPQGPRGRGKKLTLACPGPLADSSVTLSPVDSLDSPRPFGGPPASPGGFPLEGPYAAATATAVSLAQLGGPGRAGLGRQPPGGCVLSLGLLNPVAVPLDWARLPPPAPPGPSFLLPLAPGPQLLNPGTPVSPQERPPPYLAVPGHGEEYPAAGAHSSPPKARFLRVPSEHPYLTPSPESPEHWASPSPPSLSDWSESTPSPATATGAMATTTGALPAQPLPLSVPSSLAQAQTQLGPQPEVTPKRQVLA
Assay: pull-down; GST pull-down: purified GST-tagged SMARCA4 segments mixed with His-NICD3 on ice for 3 h, beads, five washes, elution with 15 mM reduced glutathione; blots with anti-GST and anti-His; GST as negative control
Settings: both partners purified

Row | Binder | binding result
1 | B1 | binds
2 | B2 | binds
